The target in test [1] is chemokine (C-C motif) receptor 5 (CCR5) (human) (UniProt P51681). Description: cell-based or functional assay.
Test [2] has the same target. Description: in vitro depletion: blood of a healthy donor passed through a column with biotinylated RANTES coupled matrix, flow cytometry for CCR1, 3 or 5-expressing cells. A general note: A flow cytometer gives signals particle by particle.
Test [3] has as its target T1, chemokine (C-C motif) receptor 1 (CCR1) (human) (UniProt P32246).
T1 sequence (looked up): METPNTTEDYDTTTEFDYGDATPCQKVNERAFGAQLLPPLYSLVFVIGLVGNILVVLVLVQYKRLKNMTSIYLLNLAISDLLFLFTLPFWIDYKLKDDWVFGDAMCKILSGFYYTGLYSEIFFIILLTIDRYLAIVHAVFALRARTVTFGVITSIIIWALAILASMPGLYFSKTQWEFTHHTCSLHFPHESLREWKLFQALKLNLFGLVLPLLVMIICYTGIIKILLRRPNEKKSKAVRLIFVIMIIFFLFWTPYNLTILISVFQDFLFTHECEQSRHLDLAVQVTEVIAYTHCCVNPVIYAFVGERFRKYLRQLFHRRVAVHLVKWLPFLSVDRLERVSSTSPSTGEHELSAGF
The description is as above.

Test [4] concerns the target T2, chemokine (C-C motif) receptor 3 (CCR3) (human) (UniProt P51677).
T2 sequence (looked up): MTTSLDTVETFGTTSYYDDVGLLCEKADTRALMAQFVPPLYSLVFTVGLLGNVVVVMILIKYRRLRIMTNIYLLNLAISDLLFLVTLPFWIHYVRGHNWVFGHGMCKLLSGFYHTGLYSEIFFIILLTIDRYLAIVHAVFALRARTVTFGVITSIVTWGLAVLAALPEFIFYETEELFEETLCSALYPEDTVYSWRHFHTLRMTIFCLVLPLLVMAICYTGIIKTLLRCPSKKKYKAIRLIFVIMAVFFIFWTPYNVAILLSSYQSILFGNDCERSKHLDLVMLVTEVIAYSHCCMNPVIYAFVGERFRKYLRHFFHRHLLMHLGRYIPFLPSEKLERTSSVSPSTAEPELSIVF
The test is described as above.

The target of test [5] is chemokine (C-C motif) receptor 2 (CCR2) on peripheral blood cells (human) (UniProt P41597). Description: flow cytometry, biotinylated chemokine (1 µM) on blood cells of adiposis dolorosa patients, CD19 positive cells, detected with fluorophore conjugated streptavidin.
Test [6] shares this target. Description: in vitro depletion: blood of three healthy donors passed through a column with bMCP-1 coupled streptavidin Sepharose matrix, flow cytometry before and after.
The target of another test is hCCR2b (human) (UniProt P41597). The test can be described thus: cell-based or functional assay.

The results in this text go back to patent EP2717940B1.

UniProt P13501, sequence (P13501 other isoform, or with tags, fused parts or gaps): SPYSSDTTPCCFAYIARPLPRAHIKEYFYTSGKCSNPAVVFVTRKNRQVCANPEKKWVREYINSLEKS
chemokine (C-C motif) receptor 2 (CCR2) on peripheral blood cells (human), sequence (P41597 whole entry): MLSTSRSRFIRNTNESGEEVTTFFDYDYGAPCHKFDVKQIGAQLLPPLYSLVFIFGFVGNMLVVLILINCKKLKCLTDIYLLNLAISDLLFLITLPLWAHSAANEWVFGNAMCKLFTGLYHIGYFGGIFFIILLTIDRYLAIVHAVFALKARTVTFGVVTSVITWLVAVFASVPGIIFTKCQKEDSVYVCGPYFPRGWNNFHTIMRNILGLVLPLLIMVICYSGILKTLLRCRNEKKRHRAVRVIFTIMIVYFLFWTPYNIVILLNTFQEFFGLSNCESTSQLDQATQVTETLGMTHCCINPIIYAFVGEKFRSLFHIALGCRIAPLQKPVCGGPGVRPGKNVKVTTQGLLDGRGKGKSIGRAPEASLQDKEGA
hCCR2b (human), sequence (P41597 other isoform, or with tags, fused parts or gaps): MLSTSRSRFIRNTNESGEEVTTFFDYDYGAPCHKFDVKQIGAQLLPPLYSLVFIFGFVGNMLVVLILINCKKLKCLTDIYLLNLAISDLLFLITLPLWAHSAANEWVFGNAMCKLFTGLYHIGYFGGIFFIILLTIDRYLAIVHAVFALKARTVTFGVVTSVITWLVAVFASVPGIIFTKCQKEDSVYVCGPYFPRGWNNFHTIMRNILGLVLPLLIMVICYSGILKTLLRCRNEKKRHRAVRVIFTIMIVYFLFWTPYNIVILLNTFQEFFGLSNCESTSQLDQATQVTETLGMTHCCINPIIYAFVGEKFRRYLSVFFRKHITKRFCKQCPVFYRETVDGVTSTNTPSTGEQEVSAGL
chemokine (C-C motif) receptor 5 (CCR5) (human), sequence (P51681 whole entry): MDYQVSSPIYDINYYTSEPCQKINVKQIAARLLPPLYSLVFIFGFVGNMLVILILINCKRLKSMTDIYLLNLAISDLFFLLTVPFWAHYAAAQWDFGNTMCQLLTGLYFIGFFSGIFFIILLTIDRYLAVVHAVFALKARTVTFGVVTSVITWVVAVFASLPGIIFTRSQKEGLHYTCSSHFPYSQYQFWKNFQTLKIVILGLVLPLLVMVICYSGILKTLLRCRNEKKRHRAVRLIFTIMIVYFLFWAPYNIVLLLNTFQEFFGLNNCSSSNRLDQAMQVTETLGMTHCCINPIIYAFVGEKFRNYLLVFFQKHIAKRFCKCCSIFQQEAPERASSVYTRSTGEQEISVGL

Turning to “biotinRANTES (CCL5): RANTES derivatised at the ε-amino side chain functionality of Lys(67) with Biotin (TFA salt) (from UniProt P13501 24-91) (ligand)”, the EC50, agonist activity in an Aequorin assay in test [1] worked out at 0.5 nM. For the same substance, the reduction of chemokine receptor-expressing cells by the column in test [2], in test [3] and in test [4] was 20% in each case.
“biotinylated MCP1 (bMCP1) (from UniProt P13500 24-99) (ligand)” gave a percent of B cells that bind in test [5] of 65%. Besides, the remaining levels of monocytes after column passage in test [6] was in the range of 20 to 30%.
In the test with hCCR2b (human), “recombinant native MCP-1 (from UniProt P13500 24-99) (ligand)” yielded an EC50, agonist activity in an Aequorin assay of 3.1 nM.
In turn, “recombinant native MCP-2 (from UniProt P80075 24-99) (ligand)” showed an EC50, activity (partial agonist) in an Aequorin assay with hCCR2b (human) of 23.5 nM.
